Test results from article PMC7065273 (Molecular cell, 2019).

Molecular target: His6-FLAG-tagged U2AF2 (amino acids 367-475), purified from E. coli (UniProt P26368 367-475)
Assay: co-IP

Sequence of His6-FLAG-tagged U2AF2 (amino acids 367-475), purified from E. coli (P26368 367-475): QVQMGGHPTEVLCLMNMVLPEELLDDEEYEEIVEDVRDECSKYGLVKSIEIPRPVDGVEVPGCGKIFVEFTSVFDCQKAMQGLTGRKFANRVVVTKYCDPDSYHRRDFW

binding result: binds
Binder: APAAPGKPASAATVKRKRKSRWGPEEDKVELPPAEL (domain or fragment, UniProt Q8IWZ8 366-401, looked up) [GST-tagged SUGP1 (amino acids 366-401), purified from E. coli]
